In the supplement of paper PMC7125110:
± gives the standard error. For some assays here: Variants at the floor of the assay were thinned out.

B1: glmS ribozyme (parent)
chain: AUAAAAGCGCCAGAACUACAGAAAUGUAGUUGACGAGGAGGAGGUUUAUCGAAUUUUCGGCGGAUGCCUCCAAA

Columns and labels:
Settings in all cases: with glucosamine-6-phosphate
glucosamine-6-phosphate [1] = variants of: B1; assay: self-cleavage kobs at 40 uM GlcN6P; higher = faster cleavage; RNA array
Method in brief: (§1)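 Weighted Michaelis–Menten fits across concentrations supplied kcat and KM, based on kobs from one- or two-exponential decay fits to normalised per-tile medians. The data came from barcoded ribozyme variants transcribed in situ by E. coli RNA polymerase on sequenced MiSeq chips and tracked at 37 °C by a hybridised Cy3 probe. Glucosamine-6-phosphate (40 μM to 10 mM) in HEPES/KCl/Mg(OAc)2 buffer was flowed in.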

glucosamine-6-phosphate [2] = variants of: B1; assay: self-cleavage kobs at 640 uM GlcN6P; higher = faster cleavage; RNA array
Method in brief: as §1

glucosamine-6-phosphate [3] = variants of: B1; assay: self-cleavage kobs at 10000 uM GlcN6P; higher = faster cleavage; RNA array
Method in brief: as §1

glucosamine-6-phosphate [4] = variants of: B1; assay: kcat; higher = faster cleavage; RNA array
Method in brief: as §1

glucosamine-6-phosphate [5] = variants of: B1; assay: KM; higher = weaker cofactor use; RNA array
Method in brief: as §1

glucosamine-6-phosphate [6] = variants of: B1; assay: self-cleavage kobs at 160 uM GlcN6P; higher = faster cleavage; RNA array
Method in brief: as §1

glucosamine-6-phosphate [7] = variants of: B1; assay: self-cleavage kobs at 2500 uM GlcN6P; higher = faster cleavage; RNA array
Method in brief: as §1

Row | Variant | self-cleavage kobs at 40 uM GlcN6P (glucosamine-6-phosphate [1]) [s⁻¹] | self-cleavage kobs at 640 uM GlcN6P (glucosamine-6-phosphate [2]) [s⁻¹] | self-cleavage kobs at 10000 uM GlcN6P (glucosamine-6-phosphate [3]) [s⁻¹] | kcat (glucosamine-6-phosphate [4]) [s⁻¹] | KM (glucosamine-6-phosphate [5]) [µM] | self-cleavage kobs at 160 uM GlcN6P (glucosamine-6-phosphate [6]) [s⁻¹] | self-cleavage kobs at 2500 uM GlcN6P (glucosamine-6-phosphate [7]) [s⁻¹]
1 | A6C A33G | < 1e-05 | < 1e-05 | < 1e-05 |  |  |  | 
2 | C58A C68U |  | 6.75e-05 ± 7e-06 | 0.000251 ± 2.3e-05 | 0.000273 ± 5.2e-05 | 2100 ± 790 | 3.66e-05 ± 1e-05 | 0.000129 ± 1.2e-05
3 | G9U A48C C50G |  |  |  |  | 92.6 ± 7.4 |  | 
4 | U65G C68A |  |  | 6.04e-05 ± 9.2e-06 | 6.34e-05 ± 1e-06 | 501 ± 50 |  | 5.3e-05 ± 1.2e-05
5 | G7A A12G | < 1e-05 | < 1e-05 | < 1e-05 |  |  |  | < 1e-05
6 | C58A U69C |  | 4.91e-05 ± 1e-05 | 0.000107 ± 1.5e-05 | 0.000112 ± 1.3e-05 | 640 ± 220 | 3.58e-05 ± 1.2e-05 | 9.46e-05 ± 2.2e-05
7 | A6C G9U U47G | < 1e-05 |  | < 1e-05 |  |  |  | < 1e-05
8 | A6U G32C G59A | < 1e-05 |  | < 1e-05 |  |  |  | 
9 | A6G G7C | < 1e-05 |  | < 1e-05 |  |  | < 1e-05 | < 1e-05
10 | C58G C71U |  | 4.63e-05 ± 1.1e-05 | 7.36e-05 ± 9e-06 | 7.95e-05 ± 3.4e-06 | 402 ± 99 |  | 7.26e-05 ± 8.7e-06
11 | G7C A33U A48U | < 1e-05 |  |  |  |  |  | 
12 | G7C C34G | < 1e-05 | < 1e-05 | < 1e-05 |  |  | < 1e-05 | < 1e-05
13 | U57G C71U |  | 3.26e-05 ± 1.2e-05 | 4.47e-05 ± 6.6e-06 | 6.07e-05 ± 3e-05 |  |  | 1.65e-05 ± 8e-06
14 | G62A U69A |  |  |  | 3.46e-05 ± 8.1e-06 |  |  | 
15 | G62A U69G |  | 3.57e-05 ± 1.7e-05 |  | 3.25e-05 ± 8.9e-06 |  |  | 3.47e-05 ± 1.6e-05
16 | G7A G38C | < 1e-05 | < 1e-05 | < 1e-05 |  |  | < 1e-05 | < 1e-05
17 | A6G A14U U31A U57G | < 1e-05 | < 1e-05 | < 1e-05 |  |  | < 1e-05 | 
18 | A6C G29U G32A U57A | < 1e-05 | < 1e-05 | < 1e-05 |  |  |  | 
19 | A6C G44C | < 1e-05 | < 1e-05 | < 1e-05 |  |  | < 1e-05 | 
